# B1: Matriptase_A1 (antibody, V domains shown)
# VH: EVQLLESGGGLVQPGGSLRLSCAASGFTFRNYDMSWVRQAPGKGLEWVSSISYSGGSTYYADSVKGRFTISRDNSKNTLSLQMNSLRAEDTAVYYCAKRGATPFDYWGQGSLVTVSS
# VL: not shown
# notes: Fully human monoclonal IgG from a hybridoma of an HCo12 HuMAb Mouse; supernatants were screened for human gamma, kappa antibodies; a human IgG1 isotype control was used in the ADCC assay
# Legend:
# [1] = biological target: T1, human Matriptase (cell-surface) (human, UniProt Q9Y5Y6 1-855); assay: flow cytometry on SNU-1 cells, PE GMFI
# T1 construct: Endogenous Matriptase on human tumour cell lines (HT-29, H69, SNU-1, A431, SW620, SKOV-3, MCF-7, A549); The protein on cells may be proteolytically processed to the stem; also called cell-surface human Matriptase; Matriptase full-length protein
# T1 sequence: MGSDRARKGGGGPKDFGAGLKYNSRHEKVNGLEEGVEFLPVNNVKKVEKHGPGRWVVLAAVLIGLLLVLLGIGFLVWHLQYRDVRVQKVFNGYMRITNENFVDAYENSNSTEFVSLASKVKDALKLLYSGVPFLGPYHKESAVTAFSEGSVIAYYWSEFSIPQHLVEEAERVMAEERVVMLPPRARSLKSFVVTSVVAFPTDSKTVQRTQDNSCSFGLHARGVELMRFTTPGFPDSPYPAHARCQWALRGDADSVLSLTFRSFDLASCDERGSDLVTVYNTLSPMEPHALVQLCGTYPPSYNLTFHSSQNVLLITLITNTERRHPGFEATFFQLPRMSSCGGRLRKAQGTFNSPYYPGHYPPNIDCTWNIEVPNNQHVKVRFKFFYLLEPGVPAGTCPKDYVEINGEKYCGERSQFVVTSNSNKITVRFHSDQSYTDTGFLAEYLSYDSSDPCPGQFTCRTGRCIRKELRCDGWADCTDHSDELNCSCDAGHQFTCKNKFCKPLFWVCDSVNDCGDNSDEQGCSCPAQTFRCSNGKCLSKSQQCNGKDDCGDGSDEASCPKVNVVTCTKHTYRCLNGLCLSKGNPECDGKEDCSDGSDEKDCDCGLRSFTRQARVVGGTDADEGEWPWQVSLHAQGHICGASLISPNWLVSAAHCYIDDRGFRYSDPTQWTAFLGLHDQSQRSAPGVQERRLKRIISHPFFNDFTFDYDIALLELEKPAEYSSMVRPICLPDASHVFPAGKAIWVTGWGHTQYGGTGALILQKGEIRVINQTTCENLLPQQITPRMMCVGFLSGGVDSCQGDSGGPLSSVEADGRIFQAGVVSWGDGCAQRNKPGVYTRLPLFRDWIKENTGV
# Procedure: The specificity of antibodies against the Matriptase selected in Example 1 was tested by flow cytometry. To test the ability of the antibodies to bind to the cell surface Matriptase protein, the antibodies were incubated with the Matriptase-expressing cells. Cells were washed in FACS buffer (DPBS, 2% FBS), centrifuged and resuspended in 100 μl of the diluted primary Matriptase antibody (also diluted in FACS buffer). The antibody-cell line complex was incubated on ice for 60 min and then washed twice with FACS buffer as described above. The cell-antibody pellet was resuspended in 100 μl of the diluted secondary antibody (also diluted in FACS buffer) and incubated on ice for 60 min on ice. The pellet was washed as before and resuspended in 200 μl FACS buffer. The samples were loaded onto the BD FACScanto II flow sytometer and the data analyzed using the BD FACSdiva software.
# [2] = biological target: T1, human Matriptase (cell-surface); assay: flow cytometry on H69 cells, GMFI Facsarray; the legend box prints no unit, nmol/L is the unit of the concentration axis
# [3] = biological target: T1, human Matriptase (cell-surface); assay: cell-based or functional assay
# [4] = biological target: T1, human Matriptase (cell-surface); assay: flow cytometry on HT-29 cells, GMFI Facsarray; the legend box prints no unit, nmol/L is the unit of the concentration axis
binder,measurement,setting,value
B1,EC50 (read off the curve),[1],~0.5 nM
same,EC50,[2],3.45 nM
same,"EC50, MabZAP internalization assay, H69 cells",[3],0.074 nM
same,"EC50, MabZAP internalization assay, HT-29 cells",[3],0.183 nM
same,EC50,[4],0.222 nM

# Source: patent US20160289338A1 (OXFORD BIOTHERAPEUTICS, published 2016)
